Reference: the supplement of paper PMC5998384

Assays:
HeLa Kyoto [1] = experiment: solubility in G1/S (NP-40 vs SDS abundance) (log2 ratio); higher = more soluble; conditions: cell cycle stage: G1/S
HeLa Kyoto [2] = experiment: solubility change mitosis vs G1/S (difference of NP-40 vs SDS log2 ratios) (log2 ratio difference); higher = more soluble in mitosis
HeLa Kyoto [3] = experiment: thermal stability score vs G1/S (z-score of summed log2 fold changes over temperatures); higher = more thermally stable than in G1/S
[4] = cell cycle stage: early G1 (4.5 h after nocodazole release)
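For solubility change mitosis vs G1/S (difference of NP-40 vs SDS log2 ratios) in this document: synchronized HeLa Kyoto cells (double thymidine block for G1/S, nocodazole release for mitosis), protein amounts in NP-40 versus SDS lysates quantified by mass spectrometry, three biological replicates.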
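For solubility in G1/S (NP-40 vs SDS abundance) in this document: HeLa Kyoto cells arrested at G1/S by double thymidine block, proteins quantified by TMT10plex mass spectrometry in mild NP-40 versus SDS extracts, three biological replicates.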
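For thermal stability score vs G1/S (z-score of summed log2 fold changes over temperatures) in this document: synchronized HeLa Kyoto cells, proteins quantified by TMT10plex mass spectrometry, three biological replicates, mitosis taken 0.5 h after nocodazole release, G1/S directly after double thymidine block.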

Sequence | solubility in G1/S (log2) (HeLa Kyoto [1]) | solubility change mitosis (log2) (HeLa Kyoto [2]) | thermal stability score (HeLa Kyoto [3]; [4]) | thermal stability score (HeLa Kyoto [3]; cell cycle stage: mitosis)
MNPTETKAIPVSQQMEGPHLPNKKKHKKQAVKTEPEKKSQSTKLSVVHEKKSQEGKPKEHTEPKSLPKQASDTGSNDAHNKKAVSRSAEQQPSEKSTEPKTKPQDMISAGGESVAGITAISGKPGDKKKEKKSLTPAVPVESKPDKPSGKSGMDAALDDLIDTLGGPEETEEENTTYTGPEVSDPMSSTYIEELGKREVTIPPKYRELLAKKEGITGPPADSSKPIGPDDAIDALSSDFTCGSPTAAGKKTEKEESTEVLKAQSAGTVRSAAPPQEKKRKVEKDTMSDQALEALSASLGTRQAEPELDLRSIKEVDEAKAKEEKLEKCGEDDETIPSEYRLKPATDKDGKPLLPEPEEKPKPRSESELIDELSEDFDRSECKEKPSKPTEKTEESKAAAPAPVSEAVCRTSMCSIQSAPPEPATLKGTVPDDAVEALADSLGKKEADPEDGKPVMDKVKEKAKEEDREKLGEKEETIPPDYRLEEVKDKDGKPLLPKESKEQLPPMSEDFLLDALSEDFSGPQNASSLKFEDAKLAAAISEVVSQTPASTTQAGAPPRDTSQSDKDLDDALDKLSDSLGQRQPDPDENKPMEDKVKEKAKAEHRDKLGERDDTIPPEYRHLLDDNGQDKPVKPPTKKSEDSKKPADDQDPIDALSGDLDSCPSTTETSQNTAKDKCKKAASSSKAPKNGGKAKDSAKTTEETSKPKDD [CAST] | 0.36 | 0.0186 | -1.5 | -2.61
MLLAQINRDSQGMTEFPGGGMEAQHVTLCLTEAVTVADGDNLENMEGVSLQAVTLADGSTAYIQHNSKDAKLIDGQVIQLEDGSAAYVQHVPIPKSTGDSLRLEDGQAVQLEDGTTAFIHHTSKDSYDQSALQAVQLEDGTTAYIHHAVQVPQSDTILAIQADGTVAGLHTGDATIDPDTISALEQYAAKVSIDGSESVAGTGMIGENEQEKKMQIVLQGHATRVTAKSQQSGEKAFRCEYDGCGKLYTTAHHLKVHERSHTGDRPYQCEHAGCGKAFATGYGLKSHVRTHTGEKPYRCSEDNCTKSFKTSGDLQKHIRTHTGERPFKCPFEGCGRSFTTSNIRKVHVRTHTGERPYYCTEPGCGRAFASATNYKNHVRIHTGEKPYVCTVPGCDKRFTEYSSLYKHHVVHTHSKPYNCNHCGKTYKQISTLAMHKRTAHNDTEPIEEEQEAFFEPPPGQGEDVLKGSQITYVTGVEGDDVVSTQVATVTQSGLSQQVTLISQDGTQHVNISQADMQAIGNTITMVTQDGTPITVPAHDAVISSAGTHSVAMVTAEGTEGEQVAIVAQDLAAFHTASSEMGHQQHSHHLVTTETRPLTLVATSNGTQIAVQLGEQPSLEEAIRIASRIQQGETPGLDD [ZNF143] | -0.143 | 0.313 | 0.385 | 0.819
MAGKAAAPGTAVLLVTANVGSLFDDPENLQKNWLREFYQVVHTHKPHFMALHCQEFGGKNYEASMSHVDKFVKELLSSDAMKEYNRARVYLDENYKSQEHFTALGSFYFLHESLKNIYQFDFKAKKYRKVAGKEIYSDTLESTPMLEKEKFPQDYFPECKWSRKGFIRTRWCIADCAFDLVNIHLFHDASNLVAWETSPSVYSGIRHKALGYVLDRIIDQRFEKVSYFVFGDFNFRLDSKSVVETLCTKATMQTVRAADTNEVVKLIFRESDNDRKVMLQLEKKLFDYFNQEVFRDNNGTALLEFDKELSVFKDRLYELDISFPPSYPYSEDARQGEQYMNTRCPAWCDRILMSPSAKELVLRSESEEKVVTYDHIGPNVCMGDHKPVFLAFRIMPGAGKPHAHVHKCCVVQ [INPP5A] | -0.359 | -0.17 | 0.56 | -0.257
MSAKDERAREILRGFKLNWMNLRDAETGKILWQGTEDLSVPGVEHEARVPKKILKCKAVSRELNFSSTEQMEKFRLEQKVYFKGQCLEEWFFEFGFVIPNSTNTWQSLIEAAPESQMMPASVLTGNVIIETKFFDDDLLVSTSRVRLFYV [PDE6D] | 0.207 | -0.258 | 0.113 | -0.864
MSSCVSSQPSSNRAAPQDELGGRGSSSSESQKPCEALRGLSSLSIHLGMESFIVVTECEPGCAVDLGLARDRPLEADGQEVPLDTSGSQARPHLSGRKLSLQERSQGGLAAGGSLDMNGRCICPSLPYSPVSSPQSSPRLPRRPTVESHHVSITGMQDCVQLNQYTLKDEIGKGSYGVVKLAYNENDNTYYAMKVLSKKKLIRQAGFPRRPPPRGTRPAPGGCIQPRGPIEQVYQEIAILKKLDHPNVVKLVEVLDDPNEDHLYMVFELVNQGPVMEVPTLKPLSEDQARFYFQDLIKGIEYLHYQKIIHRDIKPSNLLVGEDGHIKIADFGVSNEFKGSDALLSNTVGTPAFMAPESLSETRKIFSGKALDVWAMGVTLYCFVFGQCPFMDERIMCLHSKIKSQALEFPDQPDIAEDLKDLITRMLDKNPESRIVVPEIKLHPWVTRHGAEPLPSEDENCTLVEVTEEEVENSVKHIPSLATVILVKTMIRKRSFGNPFEGSRREERSLSAPGNLLTKKPTRECESLSELKEARQRRQPPGHRPAPRGGGGSALVRGSPCVESCWAPAPGSPARMHPLRPEEAMEPE [CAMKK2] | 0.289 | -0.0691 | -0.348 | -0.0506
